Laboratory results taken from patent US20020045191A1, “Inhibition of the SRC kinase family pathway as a method of treating HBV infection and hepatocellular carcinoma” (priority 2000, published 2002).

What was measured:
AP-1 = AP-1 electrophoretic mobility shift assay (EMSA), HBx-transfected Chang cells; assay type: cell-based, human; details: cotransfection of increasing amounts of Csk plasmid
Description: (FIG. 3A) Cell extracts were prepared for AP-1 EMSA as described (Benn et al., 1996, supra) using a ^32P-labeled dsDNA oligonucleotide probe containing one AP-1 binding site. Reactions were carried out using 3 μg of nuclear extract, labeled oligonuleotide and 1 μg of poly(dI-dC) for 30 min at 23° C. Protein-DNA complexes were resolved by electrophoresis on 4% polyacrylamide gels and visualized by PhosphorImage 5analysis. As a positive control for AP-1 stimulation, cells were treated with 20 μM TPA for 30 min.
Here it is shown that HBx activation of AP-1 DNA binding activity and AP-1 directed transcription, both involve an essential requirement for HBx activation of Src tyrosine kinases. Chang cells were transfected with plasmids expressing HBx or HBxo proteins, with or without cotransfection of Csk, serum starved and nuclear extracts prepared for electrophoretic mobility shift assay (EMSA) using equal amounts of nuclear extracts and a ^32P-labeled dsDNA probe containing one AP-1 binding site, as described (Benn et al., 1996 supra). Cotransfection of increasing amounts of the Csk expressing plasmid suppressed HBx induction of AP-1 DNA binding complexes in a titratable manner (FIG. 3A). […]

CMV promoter = assay: CMV-βgal reporter control (β-galactosidase activity); assay type: cell-based; details: co-expression of Csk with CMV-βgal
From the text: (§1) To assess whether HBx activation of a Src signaling cascade plays an essential role in transcriptional upregulation of the viral mRNAs, Chang cells were co-transfected with wtWHV and either RasDN or Csk plasmids, and the RNA visualized by Northern analysis (FIG. 7, lanes 2 and 3). […] To ensure that the decrease in synthesis of WHV RNA by Csk was not the unforseen consequence of Csk inhibition of the CMV promoter (which drives synthesis of the WHV pregenomic RNA), control experiments assessing the effect of Csk on a CMV-βgal reporter were carried out. […] However, the WHx-induced increase in mRNA abundance (˜3-5 fold) is much less then the HBx-induced increase in viral DNA synthesis (˜20-30 fold). […] The stimulation of Src signaling cascades by HBx must therefore promote WHV replication independent of the effect of WHx on viral transcription.

[1] = tested on: AP-1 dependent transcription; assay: AP-1 dependent luciferase reporter, HBx-transfected Chang cells; assay type: cell-based, human; details: co-expression with Csk
Description: (FIG. 3B) Cells were transfected as above but contained in addition 3 μg of plasmid pAP-1Luc, which encodes the luciferase reporter under the control of four AP-1 binding sites and a minimal TATA box promoter. Serum starved cells were harvested 18 h after transfection and the level of expression of the luciferase reporter assayed. Results are the average of three independent experiments.
Here it is shown that HBx activation of AP-1 DNA binding activity and AP-1 directed transcription, both involve an essential requirement for HBx activation of Src tyrosine kinases. Chang cells were transfected with plasmids expressing HBx or HBxo proteins, with or without cotransfection of Csk, serum starved and nuclear extracts prepared for electrophoretic mobility shift assay (EMSA) using equal amounts of nuclear extracts and a ^32P-labeled dsDNA probe containing one AP-1 binding site, as described (Benn et al., 1996 supra). Cotransfection of increasing amounts of the Csk expressing plasmid suppressed HBx induction of AP-1 DNA binding complexes in a titratable manner (FIG. 3A). Finally, cells were cotransfected with plasmids expressing HBx or HBxo and an AP-1 dependent luciferase reporter under the control of a minimal promoter, with and without a Csk expression plasmid (FIG. 3B).

MAP kinase (ERK2) [2] = assay: MAP kinase (ERK2) MBP kinase assay during WHV replication in Chang cells; assay type: cell-based, human; details: co-expression with wtWHV
Description: FIG. 6. Woodchuck Hepatitis B Virus (WHV) HBx protein (WHx) activates a Src-Ras signaling cascade during WHV replication in cultured cells. […] Eighteen hours post-transfection, cells were serum-starved in 0.5% CS for 20 hours, MAP kinase (ERK-2) was immunoprecipitated from equal amounts of cell lysates and pellets were subjected to an in vitro MBP kinase assay.
To assay for MAP kinase activity, cells were lysed in freshly prepared lysis buffer (10 mM Tris HC1 pH 7.5, 1% Triton X-100, 0.5% NP-40, 1 mM EDTA, 1 mM EGTA, 1 mM Na3VO4, 50 mM NaF, 1 mM PMSF, 40 mM PPi, 10 μg/ml aprotinin, and 10 μg/ml leupeptin) and MAP kinase was immunoprecipitated using 1μg/ml anti-ERK2 antibodies from equal amounts of protein. After 4 washes with lysis buffer, and 2 with kinase buffer (20 mM Hepes pH 7.4, 10 mM MgCl2), the immunoprecipitates were incubated with kinase buffer including 0.5 mg/ml myelin basic protein (MBP, Sigma), 10 mM ATP and 5 μCi [γ-^32P]ATP for 30 minutes at 30° C. […]
To determine whether WHx also requires activation of Src family kinases for stimulation of Ras signaling during ongoing viral replication, Chang cells were co-transfected with plasmids synthesizing wtWHV and dominant-negative Ras (RasDN), dominant-negative Src (SrcK^−), or Csk proteins, and activation of MAP kinase was measured. […]

N-Myc = N-Myc immunoblot of nuclear extracts, HBx-transfected Chang cells; assay type: cell-based, human; details: co-expression with HBx, serum-starved 20 hours
Description: Chang cells were transfected with plasmids expressing HBxo, HBx, Csk, SrcK^−, FynK^−, and the dominant-negative Ras (RasN17). The Ras N17 mutant was initially shown to preferentially bind GDP in vitro and to inhibit cellular proliferation when stably expressed in NIH 3T3 cells (Feig et al., 1988, Moll. Cell Biol. 8:3235-3243). Transfected cells were serum-starved for 20 hours, nuclear extracts prepared, equal amounts of protein resolved by SDS-PAGE and immunoblotted with anti-N-Myc antibodies. Expression of transfected HBx elevates the amount of N-Myc protein 3-4 fold. […] The inability of dominant-negative Ras or Fyn proteins to block Src activation is consistent with the report by Barone and Courtneidge (1995, supra). Co-expression of HBx with the dominant-negative Ras had no effect on induction of N-Myc by HBx, and neither did the expression of dominant-negative Fyn protein. Whether other Src family members (e.g. Yes or Lyn) are involved in N-Myc induction by HBx was not tested in these experiments.

WHV [3] = assay: WHV replication: Southern blot of core-associated viral DNA, Chang cells; assay type: cell-based, Woodchuck Hepatitis B Virus; details: co-expression with wtWHV, 3 days post-transfection
Description: FIG. 7. WHx requires activation of Src family kinase for WHV replication. Chang cells were co-transfected with 20 μg PCWHV, wtWHV, wtWHV and RasDN (dominant-negative) (10 μg), or wtWHV and Csk (10 μg). Three days post-transfection viral core-associated DNA was isolated, purified, and subjected to Southern blot analysis using a full-length ^32P-labeled WHV genomic probe.
Chang cells were transfected with infectious WHV clones, (2×10 cm plates) were washed twice with PBS and lysed in 500 μl lysis buffer/10 cm plate (20 mM Tris HCl pH 7.5, 1 mM EDTA, 100 mM NaCl, 0.5% NP-40) for 10-15 minutes. Lysates were centrifuged at 12,000× g for 30 minutes, MgCl2 was adjusted to 10 mM, DNAseI (Boehringer Mannheim) was added to 20 U/ml and the lysates were incubated at 37° C. for 2 hours. Following DNAse I treatment, the lysates were centrifuged for 5 min at 12,000× g, layered onto a 20% sucrose cushion (300 μl of 20% sucrose in 20 mM Tris HCl pH 8.0, 150 mM NaCl) and centrifuged for 178,000× g for 3 hours at 20° C. […]
Chang cells were co-transfected with plasmids encoding either wtWHV, PCWHV, wtWHV and RasDN, or wtWHV and Csk, intracellular core-associated viral DNA was isolated 3 days post-transfection, and purified viral DNA analyzed by Southern blot hybridization as described above (FIG. 7).

WHV [4] = assay: WHV RNA: Northern blot analysis, Chang cells; assay type: cell-based, Woodchuck Hepatitis B Virus; details: co-expression with wtWHV
Description: Chang cells were washed twice with PBS and total RNA prepared according to the manufacturer's instructions (RNeasy mini kit; Qiagen). 15 μg total RNA per sample were resolved through a 1.2% formaldehyde-agarose gel (Sambrook et al., 1989, supra), transferred to Duralon UV membrane, and pre-hybridized in Quick-Hyb solution (Stratagene) at 65° C. Hybridization to 32P-labeled full length WHV probe was carried out in the same solution at 65° C., washed as described above, and autoradiographed for 1 day.
as §1

MAP kinase (ERK2) [5] = assay: MAP kinase (ERK2) immunoprecipitation / MBP kinase assay in HBx-transfected Chang cells; assay type: cell-based, human
Description: (FIG. 2B) ERK2 was immunoprecipitated from equal amounts of cell lysates analyzed by in vitro phosphorylation of myelin basic protein (MBP) using [γ-^32P] ATP. […] Cells were stimulated with 100 μg/ml of insulin (Intergen) for 10 min.
To assay for MAP kinase activity, cells were lysed in freshly prepared lysis buffer (10 mM Tris HC1 pH 7.5, 1% Triton X-100, 0.5% NP-40, 1 mM EDTA, 1 mM EGTA, 1 mM Na3VO4, 50 mM NaF, 1 mM PMSF, 40 mM PPi, 10 μg/ml aprotinin, and 10 μg/ml leupeptin) and MAP kinase was immunoprecipitated using 1μg/ml anti-ERK2 antibodies from equal amounts of protein. After 4 washes with lysis buffer, and 2 with kinase buffer (20 mM Hepes pH 7.4, 10 mM MgCl2), the immunoprecipitates were incubated with kinase buffer including 0.5 mg/ml myelin basic protein (MBP, Sigma), 10 mM ATP and 5 μCi [γ-^32P]ATP for 30 minutes at 30° C. The reactions were stopped by the addition of 2× sample loading buffer (Sambrook et al. 1989, supra), resolved by 15% SDS-PAGE and visualized by autoradiography. Assays for activation of JNK MAP kinases were carried out exactly as described above, except that the immunoprecipitated JNK was incubated with 5 μg purified GST-c-Jun (Benn et al., 1996, supra) and 10 μCi [γ-^32P]ATP, and resolved by 10% SDS-PAGE.
To test whether HBx activation of the Src family of kinases is required for stimulation of Ras signaling by HBx, Chang cells were transfected at low density with plasmids expressing HBxo, HBx or HBx and Csk, serum-starved for 20 hours, 2% serum restored for 2 hours to permit protein synthesis, and activation of immunoprecipitated MAP kinase at the end of the Ras-MAP kinase cascade assayed by incubation with myelin basic protein (MBP) and [γ-^32P]ATP (FIG. 2). Expression of HBx induces a strong activation in the ability of MAP kinase to phosphorylate MBP that is abolished upon co-transfection of HBx with Csk. […]

B1: Csk: protein tyrosine kinase C-terminal Src kinase, physiologic inhibitor of Src, expressed from plasmid (protein, UniProt P41240 2-450, looked up)
Tyrosine-protein kinase CSK: SAIQAAWPSGTECIAKYNFHGTAEQDLPFCKGDVLTIVAVTKDPNWYKAKNKVGREGIIPANYVQKREGVKAGTKLSLMPWFHGKITREQAERLLYPPETGLFLVRESTNYPGDYTLCVSCDGKVEHYRIMYHASKLSIDEEVYFENLMQLVEHYTSDADGLCTRLIKPKVMEGTVAAQDEFYRSGWALNMKELKLLQTIGKGEFGDVMLGDYRGNKVAVKCIKNDATAQAFLAEASVMTQLRHSNLVQLLGVIVEEKGGLYIVTEYMAKGSLVDYLRSRGRSVLGGDCLLKFSLDVCEAMEYLEGNNFVHRDLAARNVLVSEDNVAKVSDFGLTKEASSTQDTGKLPVKWTAPEALREKKFSTKSDVWSFGILLWEIYSFGRVPYPRIPLKDVVPRVEKGYKMDAPDGCPPAVYEVMKNCWHLDAAMRPSFLQLREQLEHIKTHELHL
HBx induction of AP-1 DNA binding complexes (AP-1): suppressed | expression of βgal protein from CMV-βgal (β-galactosidase activity) (CMV promoter): did not significantly alter | HBx induced activation of AP-1 dependent transcription [1]: fully blocked | downstream activation of MAP kinase by wtWHV (MAP kinase (ERK2) [2]): efficiently inhibited | increase in N-Myc protein by HBx (N-Myc): impaired | WHV replication (core-associated viral DNA) (WHV [3]): completely abolished | reduction of WHV RNA level (WHV [4]): 3-5 fold | HBx activation of ERK2 (MAP kinase (ERK2) [5]; co-expression with HBx, serum-starved in 0.5% CS for 24 hours): impaired | HBx activation of MAP kinase (phosphorylation of MBP) (MAP kinase (ERK2) [5]; co-transfection of HBx with Csk, serum-starved 20 hours, 2% serum 2 hours): abolished | activation of MAP kinase by insulin (MAP kinase (ERK2) [5]; overexpression of Csk): only slightly impaired
